According to patent publication US10487337B2, “Methods for monocot plant improvement” (Agresearch Limited, priority 2014, dated 2019):

Experiments:
[1] = tested on: Wild-type (Col-0), Δppd mutant and transgenic PPD-OX seedlings; assay: Hypocotyl elongation of seedlings on exogenous GA or PAC; type: in vivo, Arabidopsis thaliana
Source text: Giberellic acid (GA) treatment is known to reduce levels of the DELLA proteins (including RGA1) which are GA repressors; to determine the relationship between PPD, DELLA and the GA signalling pathway the applicants performed a yeast two-hybrid (Y2H) analysis between PPD and DELLA (RGA1) and applied gibberellic acid (GA) hormone and GA biosynthesis inhibitor (paclobutrazol, PAC) to wild type, Δppd mutant, and the Δppd mutant PPD over expressor (PPD-OX).
For exogenous applications of GA or PAC seeds were surface sterilised with 70% ethanol, 0.01% Triton X-100 for 10 min, followed by 100% ethanol for 5 min, air dried on sterile filter paper, and transferred to media plates containing half-strength MS salts, 1% sucrose and 0.8% agar. Plates were incubated for 5 days at 4° C. in the dark then transferred to 24° C. with a 14 h light/10 h dark daily cycle. Light was provided by fluorescent tubes (Philips TLD 58W/865) at an intensity of 100 μM m^−2s^−1. Wild-type (Col-0) Δppd mutant and transgenic PPD-OX seedlings were grown for five days on medium with different concentrations of GA (FIG. 11A) or PAC (FIG. 11B). GA (ACROS organics), and PAC (Sigma-Aldrich) were dissolved in ethanol and acetone respectively, filter sterilised and incorporated into media plates. Ethanol or acetone (0.5%) was used for mock treatments. Seedlings were grown at 24° C. under a 14 h light/10 h dark daily cycle for 5 days before hypocotyl lengths were analysed (n=35). Each treatment was repeated twice; error bars=standard error of the mean.

[2] = tested on: ryegrass plants; assay: Leaf biomass analysis of grass transformants; type: in vivo; conditions: constitutive promoter, observed leaf growth, approximately 6 weeks
Protocol: (§1) An equal number (typically 4-10) of tillers were taken from WT and ryegrass plants transformed with Arabidopsis PPD under one of two green tissue promoters. Tillers were planted into plastic grow bags containing potting mix and pruned to be of equal height. […] The increase in leaf/shoot biomass can be quantified removing the attached above ground portion (leaves and shoots) and drying them at 65° C. for 48 hr then weighing the dry weights.
as §1, with “a constitutive promoter.” for “one of two green tissue promoters.”, “was” for “can be”, “weights (Table 2).” for “weights.”

[3] = tested on: ryegrass plants; assay: Root biomass analysis of grass transformants; type: in vivo; conditions: constitutive promoter, root growth beyond the grow bag, approximately 6 weeks
Protocol: as §1, with “three root” for “two green tissue”, “root” for “leaf/shoot”, “was” for “can be”, “the roots” for “them”, “weights (Tables 3 and 4)” for “weights.”
as §1, with “a constitutive promoter.” for “one of two green tissue promoters.”, “root” for “leaf/shoot”, “was” for “can be”, “the roots” for “them”, “weights (Table 5).” for “weights.”

[4] = tested on: Arabidopsis Δppd mutant; assay: Complementation of the Arabidopsis Δppd mutant leaf phenotype; type: in vivo; conditions: CaMV35s promoter, Arabidopsis thaliana ecotype Landsberg erecta, FIG. 13
Source text: The functionality of any PEAPOD sequence can be confirmed by complementation of the Arabidopsis Δppd mutant leaf phenotype. Complementation of the Arabidopsis Δppd mutant leaf phenotype was first used to identify the Arabidopsis PPD gene (White 2006). This was seen by a restoration of the wild type flattened leaf phenotype and normal rosette shape as opposed to the domed leaf and the twisting of the rosette to a “propeller” phenotype.
Arabidopsis thaliana (L.) Heynh ecotype Ler can be used as wild-type (WT). The Δppd loss of function deletion mutant (with PPD1 and PPD2 deleted) is as previously described in White 2006, PNAS 103, 13238-13243.
Plants are grown in a temperature-controlled glasshouse at a continuous 21° C. or in a controlled environment cabinet at 23° C. in 16-h light_8-h dark cycles.
Constructs above can be transformed into Arabidopsis by the floral dip infiltration method (Clough and Bent, 1998, Plant J 16, 735-43). The Δppd line is transformed to express the PPD polypeptides by standard techniques. Transgenic plants are confirmed by standard PCR analysis techniques with a combination of transgene-specific and T-DNA primers.
Complementation of the Δppd line to produce a wild-type leaf and rosette phenotype in T1 seedlings (the off-spring of the infiltrated plant) confirms PEAPOD functionality of the introduced gene, which can be shown in photographs.

| Molecule | leaf biomass/growth/length/branching compared to WT plants [2] | root biomass/growth/length/branching compared to WT plants [3] | PEAPOD functionality by complementation of the Δppd deletion mutant [4] | further results |
| --- | --- | --- | --- | --- |
| C=C1C[C@]23C[C@@]1(O)CC[C@H]2[C@@]12C=C[C@H](O)[C@@](C)(C(=O)O1)[C@H]2[C@@H]3C(=O)O [GA, gibberellic acid] | – | – | – | hypocotyl elongation ([1]; PPD-OX seedlings, 1 μM GA, 5 days): increased hypocotyl elongation; hypocotyl elongation ([1]; PPD-OX seedlings, up to 10 μM GA, 5 days): hypersensitive elongation; hypocotyl elongation ([1]; WT seedlings, 5-50 μM GA, 5 days): elongation of the WT hypocotyl occurred in a dose dependent manner; hypocotyl elongation ([1]; wild type (WT) seedlings, 1 μM GA, 5 days): did not promote elongation; hypocotyl elongation ([1]; Δppd seedlings, 1 μM GA, 5 days): increased hypocotyl elongation; hypocotyl elongation ([1]; Δppd seedlings, up to 5 μM GA, 5 days): hypersensitive elongation |
| CC(C)(C)[C@@H](O)[C@@H](Cc1ccc(Cl)cc1)n1cncn1 (racemic) [PAC, paclobutrazol] | – | – | – | hypocotyl length ([1]; PPD-OX seedlings, PAC beyond 0.1 μM): decrease in hypocotyl length; hypocotyl elongation ([1]; PPD-OX seedlings, PAC up to 0.1 μM): relatively insensitive; hypocotyl elongation ([1]; wild type seedlings, 0 to 10 μM PAC, 5 days): dose dependent decrease of hypocotyl elongation; hypocotyl elongation ([1]; Δppd seedlings, 0 to 10 μM PAC, compared with wild type): larger reduction in hypocotyl elongation |
| Trifolium repens PPD: PEAPOD protein of Trifolium repens, SEQ ID NO: 11 (protein, listed as Trifolium repens) MNGGSTVSFRSILDKPLNQLTEDDISQLTREDCRRFLKDKGMRRPSWNKSQAIQQVISLKALLEPTDDDLPAPVGVSSAIHHHHHHHPQPPQRNLNEAPVKGSDLDDTGFHTAEDLNKSTSTAVEIPTETNDANVVKSSGGCVASGSFGQMTIFYCGKVNVYDGVSPDKARSIMQLAACPSSFPQDNLLNKNAAVWASPCNIPIDKDVLFPNDTAILQVAQTDKMVEYPLQYREKGSIARDADVEGQASRNASLQRYREKRKDRGRSKGNKLTGITSSNFEMYLNLPVKLHASNGNSSRSSTDSPPQPRLPLVSGGSAENQPKVTLPIDLNDKDVQEC | increase in leaf biomass/growth/length/branching | increase in root biomass/growth/length/branching | functionally equivalent | – |
| Picea sitchensis PPD: PEAPOD protein of Picea sitchensis, SEQ ID NO: 5 (protein, listed as Picea sitchensis) MRGGERAPGSRPSLDKPLEELTEEDIFQLTREDCRRYLKEKGMRRPSWNKSQAIQQVLSLKSLFESKPNQQSKKPSKHKPATLQFETARDSTFAQSSVSQEQSLGFSWSKEVLDKGTAERQRLCSDSQEAHEIPRLGSKPPQSNTEGKRCAHDGHGRKSAQPLVRLPANFKNDCSNRQSSHTSESQPDTLLRSDSFQQPTAQLTIFYAGMVNVYDDVPLDKA | increase in leaf biomass/growth/length/branching | increase in root biomass/growth/length/branching | functionally equivalent | – |
| Amborella trichopoda PPD: PEAPOD protein of Amborella trichopoda, SEQ ID NO: 12 (protein, listed as Amborella trichopoda) MTAGDGSIRSILDKPLEELTEEDISQLTREDCRRYLKEKGMRRPSWNKYQAIQQVLSLKGLLEGKPCDDNSDVFSHRSPITVIPNVGSMREKEKAVNIADPEISGSHQPNFRREIHETTRERALPASDWPPSQEPVSQMTIFYAGAVNVYNDIPEDKVQAIIYLAGKSDSLQQTNVIRTGPDQCIASAASPSLNDLHSRRIHPTSNITTSQSLRVATSLPVGPHSEVPKTRKTSVQRFLEKRKDRGRLKGTLASGGSSKRGSSCLELYATSRLKSEGVATTTTQSNMNNVVVSPSNPRMPLNPGSCSWVEN | increase in leaf biomass/growth/length/branching | increase in root biomass/growth/length/branching | functionally equivalent | – |
| Musa acuminate PPD: PEAPOD protein of Musa acuminate, SEQ ID NO: 108/114 (protein, listed as Musa acuminata) MNPGETTPPSPLDKPLAELTEEDIAQLTREDCRRFLKAKGMRRPSWNKSQAIQQVISLKALLEGRPGCDDCPAGGGILQKLLTSSPSEPLSPPQDSPPPAPKEGGSGSQPLAKEPSPYRRRDPIPPPYSAGNPTCQTPIAGADLPHPPEKRCPSPRLTAEVPVGQMTIFYDGMVNVYDGVSADQARSIMELAASPVCFDDPTGAFSPARPPAFRFPPGLPRPAPVPTAPSFVGTFPISPAGKRCYSYCSFRSSVSLLTTTEGPTSRKASLQRYLEKRKDRYGHLPTESILLVSGSGGGSAKGELRGHPFEGKPIPNPLLGLDSTRTGHHHHHHGS | increase in leaf biomass/growth/length/branching | increase in root biomass/growth/length/branching | functionally equivalent | – |
| Selaginella moellendorffii PPD: PEAPOD protein of Selaginella moellendorffii, SEQ ID NO: 110/116 (protein, listed as Selaginella moellendorffii) MSSMVDFLGIEEKVSTSVSAERLKKLEELTDEDVMQLTREDCRRYLKEKGMRRPSWNKAQAVQQLLSLKSLCDPSPASSGAAKRSPSPPLDEAPAKKPMAMTSIDLKAAAAVDAANLTMFYDGAVSVFDDVSPDKASLFPLAYAIMLLAGNVKSWPSINVAANTNKVVISSYELPQARKASLQRFLQRRREKTAKEAASKGNSNKSPCHGESSGKHASDATDPATSPLLTEVSSGSGGGSAKGELRGHPFEGKPIPNPLLGLDSTRTGHHHHHHGS | increase in leaf biomass/growth/length/branching | increase in root biomass/growth/length/branching | functionally equivalent | – |
